Measurements taken from patent US10156559B2, “Lipocalin fusion partners” (Fred Hutchinson Cancer Research Center, priority 2012, dated 2018).

B1: HMOX1: cytoplasmic enzyme, HMOX1, expressed as a Scn fusion and cleaved from Scn (protein, UniProt P09601 1-288, looked up)
Heme oxygenase 1: MERPQPDSMPQDLSEALKEATKEVHTQAENAEFMRNFQKGQVTRDGFKLVMASLYHIYVALEEEIERNKESPVFAPVYFPEELHRKAALEQDLAFWYGPRWQEVIPYTPAMQRYVKRLHEVGRTEPELLVAHAYTRYLGDLSGGQVLKKIAQKALDLPSSGEGLAFFTFPNIASATKFKQLYRSRMNSLEMTPAVRQRVIEEAKTAFLLNIQLFEELQELLTHDTKDQSPSRAPGLRQRASNKVQDSAPVETPRGKPPLNTRSQAPLLRWVLTLSFLVATVAVGLYAM
modifications: expressed as Scn fusion, cleaved
B2: Adv2: cytoplasmic viral protein Adv2 expressed as a Scn fusion and cleaved from Scn (protein, UniProt P68978 18-159, looked up)
Early E3 18.5 kDa glycoprotein: AKKVEFKEPACNVTFKSEANECTTLIKCTTEHEKLIIRHKDKIGKYAVYAIWQPGDTNDYNVTVFQGENRKTFMYKFPFYEMCDITMYMSKQYKLWPPQKCLENTGTFCSTALLITALALVCTLLYLKYKSRRSFIDEKKMP
modifications: expressed as Scn fusion, cleaved

Experiment: SDS PAGE analysis of Scn fusion protein before and after cleavage
Format: physicochemical
Details: fusion protein cleaved from Scn, expressed in mammalian cell culture
Source text: The cloned knottin or library was cotransfected into HEK293 cells and media was collected as described (“Daedalus: A Robust, Turnkey Platform for Rapid Production of Decigram Quantities of Active Recombinant Proteins in Human Cell Lines Using Novel Lentiviral Vectors.” Bandaranayake A. D., et al., Nucleic Acids Res. (2011) 39(21):e143). Fusion protein was isolated using nickel IMAC and cleaved with recombinant TEV protease. Excess siderocalin was removed via size exclusion chromatography, a process which also allowed the buffer to be switched to 10 mM ammonium formate. The knottin containing fractions were then lyophilized.
(§1) FIG. 19 depicts the expression of a Scn fusion with a cytoplasmic viral protein Adv2 and the corresponding SDS PAGE analysis according to one aspect of the present disclosure. […] Additionally this fusion protein has further utility because it can be used to raise antibodies against the viral antigen in rats, mice or rabbits using the corresponding Scn ortholog.
as §1, with “21” for “19”, “knottin protein, Imperatoxin,” for “cytoplasmic viral protein Adv2”, “Additionally,” for “Additionally”

Molecule | stability of the protein after separation from Scn
B1 | stable even after separation from Scn
B2 | stable even after separation from Scn
